# Source: patent US20090148466A1, “Process for the Preparation of Hypoallergenic Mosaic Antigens” (BIOMAY AG, priority 2003, published 2009)
# B1: rPhl p 2: recombinantly produced wild type timothy grass pollen allergen Phl p 2, his-tagged (protein)
# chain: MVPKVTFTVEKGSNEKHLAVLVKYEGDTMAEVELREHGSDEWVAMTKGEGGVWTFDSEEPLQGPFNFRFLTEKGMKNVFDDVVPEKYTIGATYAPEEHHHHHH
# B2: P2M: recombinant his-tagged mosaic protein: the three Phl p 2-derived peptides recombined in altered order 1, 3, 2 (SEQ ID NO:1) (protein)
# chain: MVPKVTFTVEKGSNEKHLAVLVKYEGDTMAEVELFRFLTEKGMKNVFDDVVPEKYTIGATYAPEEREHGSDEWVAMTKGEGGVWTFDSEEPLQGPFNHHHHHH
# modifications: His tag
# Legend:
# [1] = tested on: grass pollen allergic patients; assay: Skin prick test (immediate type skin reactions); conditions: standardized skin prick solution
# Description: SPTs (skin prick tests) were performed on the individuals' forearms. Twenty microliter aliquots containing 5 concentrations of rPhl p 2 and of Phl p 2-derived mosaic P2M (1 μg/ml, 2 μg/ml, 4 μg/ml, 8 μg/ml, 16 μg/ml) were applied. In addition, standardized skin prick solutions (timothy grass pollen extract and histamine) (Allergopharma, Reinbeck, Germany) were tested. Reactions were recorded 20 minutes after SPT by photography and by transferring the ballpoint pen-surrounded wheal area with a scotch tape to paper. The mean wheal diameter (Dm) was calculated by measuring the maximal longitudinal and transversal diameter and dividing their sum by 2 as described by Focke et al., 2001.
# [2] = Characteristics of Phl p 2-derived synthetic peptides (isoelectric point); assay type: physicochemical
# Excerpt: Table 1: Characteristics of Phl p 2-derived synthetic peptides. […] Peptide 1 corresponds to SEQ ID NO:3, Peptide 3 corresponds to SEQ ID NO:4 and Peptide 2 corresponds to SEQ ID NO:5.
# [3] = tested on: IgE antibodies in sera from grass pollen allergic patients; assay: IgE reactivity by dot blot with sera from grass pollen allergic patients; assay type: binding, human; conditions: for IgE binding capacity (dot blot): sera from 12 timothy grass pollen allergic patients
# Description: The allergenic activity of the Phl p 2-derived peptides was evaluated by comparing the IgE-reactivity of complete rPhl p 2 with the peptides by dot blot analysis (FIG. 1). Nitrocellulose-dotted Phl p 2-derived peptides (P1-P3), an immunologically unrelated major grass pollen allergen, rPhl p 5 (Vrtala S, Sperr W R, Reimitzer I, van Ree R, Laffer S, Müller WD, Valent P, Lechner K, Rumpold H, Kraft D, Scheiner 0, Valenta R. cDNA cloning of a major allergen from timothy grass (Phleum pratense) pollen; characterization of the recombinant Phl p V allergen. J. Immunol. 1993, 151: 4773-4781), and for control purposes, human serum albumin as well as a control peptide were exposed to sera from grass pollen allergic patients and to serum from a non-allergic individual.
# Bound IgE antibodies were detected as described previously (Valenta R, Duchêne M, Ebner C, Valent P, Sillaber C, Deviller P, Ferreira F, Tejkl M, Edelmann H, Kraft D, Scheiner O. Profilins constitute a novel family of functional plant pan-allergens. J. Exp. Med. 1992, 175: 377-385).
# (§1) The IgE binding capacity of purified Phl p 2 mosaic (P2M) was compared with that of Phl p 2 wildtype by dot blot experiments as described for the peptides using sera from twelve timothy grass pollen allergic patients (FIG. 7). […] Basophils from a grass pollen allergic patient were enriched by dextran sedimentation and exposed to increasing concentrations of purified rPhl p 2 or rPhl p 2 mosaic as described (Valent P, Besemer J, Muhm M, Majdic O; Lechner K, Bettelhei P. Interleukin 3 activates human blood basophils via high-affinity binding sites. Proc. Natl. Acad. Sci. USA 1989, 86: 5542-5546).
# serum IgE = conditions: cited from earlier work
# [4] = tested on: Basophils from a grass pollen allergic patient; assay: Basophil histamine release; assay type: cell-based, human
# Excerpt: as §1
# Histamine released in the cell free supernatants was determined in triplicates by radioimmuno assay and is expressed as mean percentage of the total histamine content of the cells as described by Valent et al.
molecule,measurement,setting,value
"NCCc1c[nH]cn1 [Histamine, histamine]",mean wheal diameter,[1]; Individual 1,8 mm
same,mean wheal diameter,[1]; Individual 2,8 mm
"Peptide 2: synthetic Phl p 2-derived peptide; Table 1 prints aa 65-96, SEQ ID NO:4; text says aa 34-64 (REHGSDEWVAMTKGEGGVWTFDSEEPLQGPFNC) [synthetic Phl p 2-derived peptide; text says aa 34-64]",Isoelectric point,[2],4.03
"Peptide 3: synthetic Phl p 2-derived peptide; Table 1 prints aa 34-64, SEQ ID NO:5; text says aa 65-96 (CFRFLTEKGMKNVFDDVVPEKYTIGATYAPEE) [synthetic Phl p 2-derived peptide; text says aa 65-96]",Isoelectric point,[2],4.45
B1,IgE reactivity (dot blot),"[3]; nitrocellulose-dotted, sera from 35 grass pollen allergic patients",Sera from all 35 grass pollen allergic patients showed IgE reactivity
same,IgE binding capacity (dot blot),[3],Sera from all 12 grass pollen allergic patients contained IgE antibodies against rPhl p 2
same,share of grass pollen allergic individuals whose serum IgE reacts,serum IgE,about 70%
same,concentration of maximal histamine release,[4]; basophils from a grass pollen allergic patient,10^−3 μg/ml
B2,IgE binding capacity (dot blot),[3],no serum exhibited IgE reactivity
same,reduced allergenic activity compared to the rPhl p 2 allergen,[4]; basophil histamine release,more than 1000 fold
